± gives the standard deviation of the averaged measurements.

Data set [1] is described as follows: PET hydrolysis, aromatic products released after 48 h (umol product/mg enzyme); higher = more PET depolymerization activity. As to the method:
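HTP-purified, SUMO-cleaved, tagless PET hydrolase candidates (5 ug, 1.43 mg/g PET) were incubated 48 h without shaking with 3.5 mg amorphous PET film (aFilm) or crystalline PET powder (cryPow) in 0.5 mL buffer: NaCitrate pH 4.5/5.5, NaPhosphate pH 6.5/7.5, glycine pH 8.5. Incubation was at 40 or 60 C. Aromatic products (TPA, MHET, BHET) in the supernatant were quantified by UV absorbance at 260/280 nm relative to buffer blanks and expressed per mg enzyme. LCC-ICCG was the positive control on every plate.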

Data set [2] is described as follows: purified protein yield per well (BCA); higher = higher soluble expression. In a few lines: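 Each candidate enzyme was grown in E. coli C41(DE3) in a 2 mL autoinduction culture (100 µg/mL kanamycin; 2 h at 37 °C, then 40 h at 18 °C) and purified robotically via Ni-charged magnetic beads with SUMO protease cleavage. Purified protein yield per well was assessed using the Pierce Rapid Gold BCA kit. Readings below 25 ug (0.1 mg/mL) are beneath the detection threshold.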

The mark [3] stands for this setting: substrate: cryPow, 40 °C, pH 4.5.
Where [4] appears, read: substrate: cryPow, 40 °C, pH 5.5.
Setting [5] is: substrate: cryPow, 40 °C, pH 6.5.
Setting [6] is: substrate: cryPow, 40 °C, pH 7.5.
Where [7] appears, read: substrate: cryPow, 60 °C, pH 4.5.
Setting [8] is: substrate: cryPow, 60 °C, pH 5.5.
Where [9] appears, read: substrate: cryPow, 60 °C, pH 6.5.
The mark [10] stands for this setting: substrate: cryPow, 60 °C, pH 7.5.
Setting [11] is: substrate: cryPow, 40 °C, pH 8.5.

For “AAPAGPAALPARPLAAAPADSPYERGPAPTEASITAERGPFAIEKIDVPAGSGTGFNRGTIYAPTDTSQGTFGAIAVSPGFMSPQSVIDWYGPRLASQGFVVMTLETKSLLDAPAARGDQLLAALDYMTGKSKAKDRIDASRLAVMGHSMGGGGTLEAANKRASLQAAVPLAPWDTNYDWKNVQAPTMIMGADNDTIAPADSMAERYYGTLTAVPEKAYLELRNAGHTTFNAPNTTIAKYAIAWMKRFVDDDARYEQFLCPEPSPSTTIAQYEGTCPTG [TEP067]”, the PET hydrolysis in data set [1] (setting [3]) is 5; in data set [1] (setting [4]), 12; in data set [1] (setting [5]), 14; in data set [1] (setting [6]) it was below 3. Moreover, the “purified protein yield per well” value in data set [2] came out at 49.7 µg.
On to “ADNPYERGPAPTNASIEAVRGPYAVSQATVSSLAVTGFGGGTIYYPTTTSDGTFGAVAISPGYTGTQSSIAWLGPRLASQGFVVFTIDTNTTLDQPDSRGRQLLAALDYLTRVSPLRTRVDSTRLGVMGHSMGGGGSLEAAKSRPSLQAAIPLTPWNLDKTWPEIQTPTLIVGADGDSIAPVSSHAEPFYENLPSSLDRAYLELNGASHFAPNSSNTTIAKYSISWLKRFIDNDTRYEQFLCPLPRPSLTIEEYRGNCPHQS [TEP188]”, for which the PET hydrolysis in data set [1] (setting [3]), in data set [1] (setting [4]), in data set [1] (setting [5]), in data set [1] (setting [6]), in data set [1] (setting [7]) and in data set [1] (setting [8]) was below 3 in each case. In addition, the PET hydrolysis in data set [1] (setting [9]) and in data set [1] (setting [10]) was below 3 each time. For the same sequence, in data set [2], the “purified protein yield per well” value was 72.2 µg.
As to “ADNPYQRGPDPTPASVAAVNGPFATASVSVPAGYGFGGGMIYYPTDTSQGTFGGIAISPGYTALFSAELAWMGPWLASHGFVVIGIETNSRNDFDEARGTQLLAALDYLTQQSPVRTRVDPNRLAVSGHSMGGGGALNAAIRRPSLKAAVGLAPFLPSSNLANDRVPTMVFAGQQDTVVSPSYVTNLYNSLPATTESAYLEIAGGDHGFPVGRPNQVMIRTMLPFVKIFLDNDTRYSQFLCPLMDSTGVVTYRSTCPLLPPGLPTTPPTSTSSNPTVGPTTPSTTAPTTTPAPGGACTATYRTTNSWPGGFQGEVTITAGSSAINGWTVRWTLGSGQTISQVWNGEVSITGSTVSVRNAPYNGSLPASGSTTFGFLGGGSPSSPSLTCTSP [TEP165]”, the PET hydrolysis in data set [1] (substrate: aFilm, 40 °C, pH 4.5) is below 3; in data set [1] (substrate: aFilm, 40 °C, pH 5.5), below 3; in data set [1] (substrate: aFilm, 40 °C, pH 6.5), 2 ± 2.8; in data set [1] (substrate: aFilm, 40 °C, pH 7.5), below 3; in data set [1] (substrate: aFilm, 60 °C, pH 4.5), 2 ± 2.8; in data set [1] (substrate: aFilm, 60 °C, pH 5.5) it was below 3. Moreover, the PET hydrolysis in data set [1] (substrate: aFilm, 60 °C, pH 6.5) was 1.5 ± 2.1; in data set [1] (substrate: aFilm, 60 °C, pH 7.5), below 3; in data set [1] (setting [3]) it was 4.5 ± 0.71; in data set [1] (setting [4]) it was 11; in data set [1] (setting [5]), 52 ± 2.8; in data set [1] (setting [6]), 67 ± 11. Besides, the PET hydrolysis in data set [1] (setting [7]) amounted to 12; in data set [1] (setting [8]), 25; in data set [1] (setting [9]), 46 ± 1.4; in data set [1] (setting [10]), 45.5 ± 2.1. Also, the “purified protein yield per well” value in data set [2] came out at 433 µg.
On to “AEPATIHGPAPTEESITAPTGPFEIDRETVPRSTVEGFGGGTIYYPTDTSEGTFSAVAIAPGYTAGQETLAWLGPRLASQGFVVFTIDTITTSDRPDARAEQLAASLDYLTGSSEVQDRIDPARLGVMGHSMGGGGALQAALDDPGLKAAIPMTPWNTVKDFSGVRTPTMIIGAQNDTVAPVAQHSEPFYESLPDDPGKAYLELAGASHFAPNRDDTTIAKSSIAWLKRFLDDDTRYDRFLCPPPQDPEISDYRATCPY [DP023]”, for which the PET hydrolysis in data set [1] (setting [4]), in data set [1] (setting [5]), in data set [1] (setting [6]) and in data set [1] (setting [11]) was below 3 each time. Moreover, in data set [2], the “purified protein yield per well” value came out at 33 µg.
On to “AETTTQHGPDPTEGSITAPTGPFQTDQKTVPRSSVQGFGGGTIYYPTETSQGTFGAVTIAPGYTAGKESLAWLGPRLASQGFVVFTIDTITTSDQPDSRAKQLMASLDYLTGDSDVRDRIDTSRLAVMGHSMGGGGTLEAARDNRNLKAAIPMTPWDTTKDFSGVQTPTLIIGAQNDTIAPVAQHAKPFYGSLPDDPGKAYLELAGASHFAPNQDNTTIAKSSIAWLKRFVDDDTRYDQFLCPPPQDAEISDYQSTCPY [TEP037]”, for which the PET hydrolysis in data set [1] (setting [3]) is below 3; in data set [1] (setting [4]) it was 5; in data set [1] (setting [5]), below 3; in data set [1] (setting [6]), below 3; in data set [1] (setting [7]), below 3; in data set [1] (setting [8]), below 3. Also, the PET hydrolysis in data set [1] (setting [9]) and in data set [1] (setting [10]) was below 3 each time. The “purified protein yield per well” value in data set [2] worked out at 77 µg.
For the sequence “ATAAPLPHAAADNPYQRGPDPTIAMIESTRGPFATASVSVPPGNGFNGGMIYYPTDTSQGTWGALAIVPGYTALFANEEAWMGPWLSSFGFVVIGVETNSRTDFDTARGTQLLAALDYLTTKSPVHDRVDPNRLSVLGHSMGGGGVVYATEHRPSLKAAVALAPFSPSQNMSTDTVPTMVIGGQNDTVVTPSYVDGLYATLPATTPSDFAQIAGADHVYYTHPNNVEMKLLIPWLKTFVDNDTRYTQFLCPTLPDPSTVSAYRPKCPYVPGGGTTPPPTGNTGPLHAVGAGKCLNAGASGSQAQIQDCTGGASQVWTHTDANQLSVTNGSQLCLDASGQGTSPGTKVITWACNGQPNQQWTVNSDGTVKGVQSGLCLDVSGASTASGALVQLWTCNGQPNQQWRLG [TEP062]”, the PET hydrolysis in data set [1] (setting [3]), in data set [1] (setting [4]), in data set [1] (setting [5]), in data set [1] (setting [6]), in data set [1] (setting [7]) and in data set [1] (setting [8]) was below 3 throughout. Also, the PET hydrolysis in data set [1] (setting [9]) and in data set [1] (setting [10]) was below 3 throughout. The “purified protein yield per well” value in data set [2] stood at 85.2 µg.
“ATPARPASVAAAPAAVQRAADNPYQRGPAPTEASITAEKGPFAVETIPVPAGSGTGFNKGTVYAPTDTSEGTFGAIVVSPGFVSPEAWISWYGPRLASQGFVVMTLETNSLVDVPASRGDQLLAALDWLTGKSSVKNRIDASRTAVMGHSMGGGGTLEAANKRPSLKADIPLAPWDTNYNFPNIKTPTLIMGADNDLIAPASSMAESYYNNITTAPEKAYLLLKNAGHMTFVSPNTTIAKYSIAWMKRFVDNDTRYDQFLCPAPKPDANIAKYLDTCPNG [DP016]”: the PET hydrolysis turned out to be 4 in data set [1] (setting [4]); 14 in data set [1] (setting [5]); 17 in data set [1] (setting [6]); 4 in data set [1] (setting [11]); 10 in data set [1] (setting [8]); 10 in data set [1] (setting [9]). Moreover, the PET hydrolysis in data set [1] (setting [10]) was 7; in data set [1] (substrate: cryPow, 60 °C, pH 8.5), below 3. For the same sequence, in data set [2], the “purified protein yield per well” value worked out at 83 µg.
Consider “WLTSAASPVRARVDANRLGVGGHSMGGGGAIEAASEMPSLKASIGFEPWNGIGSWPGVRVPTMIQGAQNDNIAPVAQHSEPFYNSMTNAPEKAYAEFTGASHFFSGQAGPATTRLSVSWYKRFLDNDTRYDQFLCPGPRSPEVVEYRNTCPLTTPGGGGGTTTTTGPGTTTTTRPTTTTTAPPAQCQWWEWWCWLGWG [TEP046]”, for which, in data set [2], the “purified protein yield per well” value is below 25 µg.
As to “WTPDPEPPGPVPEPCNTDCSQGPYPTTGSVEANMGPFSISSVSVPWTVSGFGGGTIYYPSSGTTGSLGAIALIPGFLGPEWTISAWGERLASHGFIVITVATNAVTDQPDSRATQLSRALDHVIIESGSTSSPIYGMVDPNRLGAMGISMGGGGTLKLTSDRTLSAAVPMVPWYLGFNDFESIDTPTLIIGCENDTIAPVALHSIPFYNAISDDVDKAYLEMNNGSHGCVAGLTNVDILGKYAVSWMKRFIDNDQRYDQFLCGPNHTAPFSVSDYRDNCDY [DP096]”, the “purified protein yield per well” value in data set [2] was below 25 µg.
The same measure, in the same setting: in the case of “YILASGFVGQLVAQTPSLEALGRQGPYQVAWYTQLPSVPEFSGATLYFPANKAQDFGGVVISPGFFERQENISWWGNYLASHGFAVITFDTNELRDLPPLRADALLATIDLLRGENSRQGSAVRGKILEDSMAVMGHSMGGAAALLLANENSNEIKAAIPFNAGGLRNANFSAVAVPTLVIAGEIDRLAPVNEHAWSHYQTLT [TEP088]” it was below 25 µg; in that of “YNPPPPPPDPGPGPGQPSDGFERGPNPSVSFLEASRGPFSIRETRVSGTVRGFGGGTIYYPTGTSGTMGAIVVIPGFVSPESSIAWWGPKLASHGFVVMTIATNSGYDQPRSRATQINSALDYLIDQNSDSRSPVRNMIDTDRLGVMGWSMGGGGTLRVASQNRLKAAVGLAPYDTISFRNVDAPTMILACESDTIAPVRNHASPFYNEIPFNTDKAFFEINGGSHTCANGGNRFNETLSRLGVSWMKR [ESM179]”, below 25 µg; in that of “YQRGPDPTRSALTADGPFSVTTYTVSRYAVTGFGGGVIYYPTGTSLTFGGIAVSPGYTADASSLAWFGRRLASHGFVVLVINTNSRFDFPDSRASQLAAALDYLVSRSPSAVRARLDTSRLAVAGHSMGGGATLRISENRPSLKAAVPLTPWHTDKTFNTAVPQLIIGAENDTVAPVSDHAIPFYQNLPSTTPKVYLELNNASHF [TEP127]”, below 25 µg.
Turning to “YRPVVAFRVKVRKLERAIGESMASVARMQGRYLRASTLTAVAAATIVGCYLRGPDPTVELVESPVGPFEVETVLVPSTVDGFGGGEIYDPVDEDYSFGGIAVVPGVGIDRSRLEWYGPRLASHGFVVFLIETDSVWDVPDQRGEQLIAALDYMTTQSAVVDVVDPKRLAVMGYSFGGGGVIHATRLKPDLKAAIPLAMWFWDNDQSASTVPHLLISCEIDFENDAHTGAVYESRPASTARAMMEIAGADHQCIKQDGSTEQQ [TEP130]”, the “purified protein yield per well” value in data set [2] was below 25 µg.
Regarding “YYPTSTSDGTFGAVVVTPGFTATESSMAWLGPRLASQGFVVFTIDTLTTLDQPDSRGRQMLAALDYLTERSSARTRIDGTRLGVIGHSMGGGGTLEAAKSRPSLKAAIPLTPWNLDKTWPEVTTPTLVVGADGDTVAPVATHAKPFYSSLPSSTDRAYLELNNATHFAPN [TEP120]”, in data set [2], the “purified protein yield per well” value was below 25 µg.
As to “YYSGATLYYPIDAPEPFASIVIVPGWGMPESTIQDWGPFFASWGIVAMTIGTNNPNYDWPEERAEALLDAIETIKQEDGRINSPVYGKIDLNSFAVSGWSMGGGGAQLAAVMEPTLKAVIALCPWLDNWVLGPDDLNHSVPILIFSGENDVNAPPYLHADIHYNYTPAATDKLLFEVENGDHYVANGPDGGSGYIGDRAHEWLKKYLLDDFSNCELLLEVPPTASQYLTNIECESVIQGDLNGDGVIDILDIIILVNMILNDEYNSIADLNEDGELNILDVVTIVNLVLFGDDSVCIDIDGNIYETVQIGDQLWMAENLKVTHYNDGSEITHIINSDDWGNYNEGQYGVYDNDPSNADIYGNLYNWYTVDDDRGVCPEGFHAPSDEEFMELEIFLGMSESEANSTGNRGTNEGSKLADNADLWISGNLENNAEFGMSGFNGLPAGHRLYDNGYYSSMGNFVSYWSSTEHSSNYAWNRELEYHASVVYRFYATKQFGFSIRCLGD [TEP063]”, the “purified protein yield per well” value in data set [2] was below 25 µg.
